Results from US20250270343A1 (Alector, published 2025).

Key:
[1] = molecular target: T1, soluble human GPNMB-Fc polypeptide (human, UniProt Q14956 23-498, limits assumed); test: FACS, Fab2 enhancing huGPNMB-Fc binding to SVEC4-10 cells
T1 construct: also called huGPNMB-Fc; not shown: Fc domain
T1 sequence (looked up): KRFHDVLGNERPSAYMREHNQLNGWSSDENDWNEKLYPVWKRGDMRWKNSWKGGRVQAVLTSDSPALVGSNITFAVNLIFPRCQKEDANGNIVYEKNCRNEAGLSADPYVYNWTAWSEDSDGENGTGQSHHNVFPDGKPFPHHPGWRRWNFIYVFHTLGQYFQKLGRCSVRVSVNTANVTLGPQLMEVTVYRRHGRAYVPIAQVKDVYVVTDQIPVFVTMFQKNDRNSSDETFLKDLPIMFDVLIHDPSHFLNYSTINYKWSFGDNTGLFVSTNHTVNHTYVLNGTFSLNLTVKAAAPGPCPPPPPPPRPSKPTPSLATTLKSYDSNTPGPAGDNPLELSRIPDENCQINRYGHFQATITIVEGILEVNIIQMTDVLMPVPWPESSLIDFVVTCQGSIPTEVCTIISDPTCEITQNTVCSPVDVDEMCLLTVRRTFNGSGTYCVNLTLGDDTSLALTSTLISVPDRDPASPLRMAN
Description: (§1) Purified recombinant Fab2 fragments of select anti-GPNMB antibodies of the present disclosure were produced through transient transfection and purified. Briefly, 2 ug/mL soluble mouse or human GPNMB-Fc diluted in binding buffer was pre-complexed with increasing concentrations of anti-GPNMB Fab2 fragments in 96-well plates. Subsequently, 100,000 SVEC4-10 cells were added per well and incubated on ice for 30 minutes. Soluble moGPNMB-Fc or huGPNMB-Fc bound to cell surface was detected with fluorescent anti-human IgG1 secondary antibody and measured on FACSCanto. IC50 and EC50 values based on changes in MFI values were calculated for each antibody.

[2] = molecular target: T2, soluble mouse GPNMB-Fc polypeptide (Fc of human IgG1 or mouse IgG2A, not specified for the assay) (mouse, UniProt Q99P91 23-502); test: FACS, Fab2 blocking moGPNMB-Fc binding to SVEC4-10 cells
T2 construct: extracellular domain; also called moGPNMB-Fc; mGPNMB; not shown: Fc region of human IgG1 or mouse IgG2A; in the Fab2 assay detected with anti-human IgG1 secondary antibody
T2 sequence (looked up): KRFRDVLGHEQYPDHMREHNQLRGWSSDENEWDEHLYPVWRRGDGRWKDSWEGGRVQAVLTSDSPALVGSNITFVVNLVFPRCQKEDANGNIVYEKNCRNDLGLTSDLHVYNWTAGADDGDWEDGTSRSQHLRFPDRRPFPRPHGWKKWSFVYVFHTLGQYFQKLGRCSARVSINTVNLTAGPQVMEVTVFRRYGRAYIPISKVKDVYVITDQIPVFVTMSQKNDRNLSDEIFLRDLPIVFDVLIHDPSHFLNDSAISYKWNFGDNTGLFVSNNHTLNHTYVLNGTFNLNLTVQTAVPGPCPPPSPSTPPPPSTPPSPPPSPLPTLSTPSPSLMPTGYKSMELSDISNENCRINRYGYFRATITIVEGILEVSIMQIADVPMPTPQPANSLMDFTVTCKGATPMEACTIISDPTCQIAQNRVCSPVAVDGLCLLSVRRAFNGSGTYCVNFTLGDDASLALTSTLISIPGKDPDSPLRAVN
Description: as §1

- EC50 [1]: 9.05 nM
- IC50 [2]: 1.56 nM
B1: recombinant Fab2 fragment of anti-GPNMB antibody GPN-61 (other)
VH: DVQLQESGPGLVKPSQTVFLTCTVTGISITTGNYRWSWIRQFPGNKLEWIGYIYYSGTITYNPSLTSRTTITRDTPKNQFFLEMSSLTAEDTATYFCARDLRHWYFDVWGTGTTVTVSS
VL: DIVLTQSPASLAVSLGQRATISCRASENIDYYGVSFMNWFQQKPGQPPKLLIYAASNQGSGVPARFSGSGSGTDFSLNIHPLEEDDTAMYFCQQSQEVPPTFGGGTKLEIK
notes: also called GPN-61 Fab2
